Reference: patent US6685932

Key:
[1] = target: T1, extracellular domain of the IL-4Rα (IL-4 binding protein), P24394; assay: biosensor (BIA2000), IL4BP biotinylated at Cys-206 on a streptavidin matrix, 25 C
[2] = target: T1, extracellular domain of the IL-4Rα …; assay: biosensor (BIA2000), IL4BP on a streptavidin matrix, room temperature
[3] = target: T1, extracellular domain of the IL-4Rα …; assay: biosensor (BIA2000), compared with MAR-IL4

T1 sequence (P24394 26-232 limits assumed): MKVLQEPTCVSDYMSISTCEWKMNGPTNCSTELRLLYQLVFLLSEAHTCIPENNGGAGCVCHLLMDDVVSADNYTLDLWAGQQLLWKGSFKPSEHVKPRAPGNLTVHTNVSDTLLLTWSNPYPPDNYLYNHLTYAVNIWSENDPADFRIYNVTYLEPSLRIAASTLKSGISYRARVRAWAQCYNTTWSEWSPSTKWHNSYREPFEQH

Binder	Kd [1] [µM]	Kd [2] [µM]	fold increase in binding affinity against MAR-IL4 [3] [fold]
RMKQLEKKVERCLKRLYRNEWEVIRLKKLVG (modifications not checked) [12CNMAR-IL4]	5	–	–
RMKQLEKKVERLLKRNYRLENEVARLKKLVG (modifications not checked) [Model 2a]	2160	2000	–
RMKQLEKKVERLLKRNYRLEWEVIRLKKLVG (modifications not checked) [MAR-IL4]	26	–	–
RMKQLEKKVERCLKRNYRLEWEVIRLKKLVG (modifications not checked) [12CMAR-IL4]	5	–	5
RMKQLEKKVERLLKRNYRLEWEVIRCKKLVG (modifications not checked) [26CMAR-IL4]	5 to 10	–	5
RMKQLEKKVERLLKRNYRLENEVIRLKKLVG (modifications not checked) [Model 2b]	193	–	–
RMKQLEKKVERLLKRNYRLEWEVARLKKLVG (modifications not checked) [Model 2c]	106	100	–
